Test results: article PMC6275497, “Folding pathway of an Ig domain is conserved on and off the ribosome” (Proceedings of the National Academy of Sciences of the …, 2018)

Experiments:
ribosomal protein uL24 = ribosomal protein uL24 (E. coli (endogenous in E. coli KC6), UniProt P60624 1-104); assay: cryo-EM structure; TnaC-stalled I27[L = 35] ribosome-nascent chain complexes purified from E. coli by the His tag; average resolution 3.2 Å, I27 density ~4.5- to 9-Å; rigid-body fit of PDB 1TIT and PDB 4UY8, uL24 β hairpin remodeled; details: both partners purified
ribosomal protein uL29 = ribosomal protein uL29 (E. coli (endogenous in E. coli KC6), UniProt P0A7M6 1-63); assay: as above; details: both partners purified

- binding result (ribosomal protein uL24): binds
- binding result (ribosomal protein uL29): binds
B1: N-terminally His-tagged I27-TnaC[L = 35] nascent chain (titin I27 domain, linker, TnaC arrest peptide), stalled on the ribosome (other)
chain: MDMGHHHHHHHHDYDIPTTLEVLFQGPGTLIEVEKPLYGVEVFVGETAHFEIELSEPDVHGQWKLKGQPLAASPDCEIIEDGKKHILILHNCQLGMTGEVSFQAANTKSAANLKVKELSGSGSGSGGPNILHISVTSKWFNIDNKIVDHRP
modifications: nascent chain held as peptidyl-tRNA on the stalled ribosome
notes: N-terminal leader of the construct as printed; it holds the 8X His tag itself; titin I27 Ig domain, 89-residue construct; numbers count on: the I27 domain itself (L1-L89); linker between I27 and the TnaC arrest peptide; TnaC arrest peptide; also called I27[L = 35]; not shown: His8, N-terminal, kept
